Laboratory results as given in US20230218777A1 (Stanford University, published 2023).

Molecular target: SARS-CoV-2 Spike protein (SARS-CoV-2, UniProt P0DTC2 14-1273)
Assay: cell-based or functional assay

| Binder | neutralizing effect calculated by IC50 (SARS-CoV-2 pseudovirus on hACE2-293T cells), against parental R18 [times] | neutralizing effect calculated by IC50 (SARS-CoV-2 pseudovirus on hACE2-293T cells), against parental R13 [times] |
| --- | --- | --- |
| affinity-matured nanobody R18 (VHH) VHH: QVQLQESGGGLVQAGGSLRLSCAASGSISRDYDMGWYRQAPGKERKFVAGINVGGTTNYAGSVKGRFTISRDNAKNTVYLQMNSLKPEDTAVYYCAVHAVYTDGWEDGYLYPLPYWGQGTQVTVSS | ~100 |  |
| affinity-matured nanobody R13 (VHH) VHH: QVQLQESGGGLVQAGGSLRLSCAASGTIFQVSSMGWYRQAPGKERKFVATIADGSSTNYAGSVKGRFTISRDNAKNTVYLQMNSLKPEDTAVYYCAALGQVSEYNSASYEWTYPYWGQGTQVTVSS |  | ~100 |
